Our source for the binding signal values is PMC5007355.

Data set [1] deals with Fur (ferric uptake regulator) (Helicobacter pylori (strain G27?)). Put plainly: DNase I footprinting (protection). As to conditions: Footprinting: 15 fmol probe in 50 ul, 300 ng salmon sperm DNA, room temperature, 150 uM Fe2+ or dipyridyl, competitive buffer 20 mM HEPES pH 7.85, 50 mM KCl, 0.
For data set [2] the test system is unchanged. As to the kind of experiment: DNase I footprinting (full protection). The conditions noted are these: apo (150 uM 2,2'-dipyridyl); site fOPII; Footprinting: 15 fmol probe in 50 ul, 300 ng salmon sperm DNA, room temperature, 150 uM Fe2+ or dipyridyl; competitive buffer 20 mM HEPES pH 7.85, 50 mM KCl, 0.

On to ParsR wild-type footprinting probe, for which the binding signal in data set [1] (apo (150 uM 2,2'-dipyridyl), site fOPI) came to 75 nM; in data set [1] (holo (150 uM Fe2+), site fOPI), 12 nM; in data set [1] (holo (150 uM Fe2+), site fOPIII (low affinity)) it was 125 nM; in data set [2] it was 30 nM.
